Laboratory results published in US5635597A (Affymax Technologies, N.V., priority 1994, dated 1997).
Where a SMILES comes first, the peptide text is derived from it.

Experiments:
βγ [1] = biological target: T1, βγ (Homo sapiens, UniProt P14784+P31785); assay: Binding to βγ subunits
T1 construct: was produced in recombinant host cells in a truncated form; made in house; host or cells: recombinant host cells (not fixed)
T1 sequence (P14784 27-240 limits assumed): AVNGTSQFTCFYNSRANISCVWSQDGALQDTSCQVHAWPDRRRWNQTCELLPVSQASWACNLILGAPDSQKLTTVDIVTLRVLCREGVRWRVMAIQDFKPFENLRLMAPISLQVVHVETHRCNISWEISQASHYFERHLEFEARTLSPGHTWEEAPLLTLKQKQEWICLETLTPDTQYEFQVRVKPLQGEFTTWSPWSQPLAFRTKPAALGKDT
T1 sequence (P31785 23-262 limits assumed): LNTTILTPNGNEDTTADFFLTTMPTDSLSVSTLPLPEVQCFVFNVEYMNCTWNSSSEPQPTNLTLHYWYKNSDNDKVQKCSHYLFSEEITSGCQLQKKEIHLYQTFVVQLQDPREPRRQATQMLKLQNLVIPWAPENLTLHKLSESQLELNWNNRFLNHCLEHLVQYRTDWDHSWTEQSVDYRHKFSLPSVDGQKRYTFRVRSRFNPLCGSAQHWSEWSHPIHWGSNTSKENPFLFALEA
Experimental: (§1) After several rounds of affinity enrichment, the phage or plasmids and accompanying peptides were examined by ELISA to determine if the peptides bind specifically to the receptor. This assay was carried out in a manner similar to the procedures used in the affinity enrichment process, except that after removing unbound phage (or plasmids), the wells were typically treated with rabbit anti-phage antibody, then with alkaline phosphatase (AP)-conjugated goat anti-rabbit antibody, or with anti-LacI-AP, and then the amount of alkaline phosphatase in each well was determined by standard methods. By comparing test wells with control wells containing an unrelated receptor, one can determine whether a peptide binds to IL-2Rα (or IL-2Rβ, γ, αβ, or βγ) specifically. Peptides found to bind specifically to the receptor were then synthesized as the free peptide (no phage) and tested for binding against (1) immobilized soluble receptor, (2) receptor expressed on the surface of cells, (3) the heterotrimer form of the receptor (i.e., IL-2Rαβγ) expressed on the surface of cells and (4) the two heterodimers IL-2Rαβ and IL-2Rβγ.

β-subunit = biological target: T2, β-subunit (Homo sapiens, UniProt P14784); assay: Blocking of IL-2 binding to the β-subunit
T2 construct: was produced in recombinant host cells in a truncated form; made in house; host or cells: recombinant host cells (baculovirus system or PIG-tailed CHO cells named as options)
T2 sequence (P14784 27-240 limits assumed): T1 sequence (P14784 27-240 limits assumed)

βγ [2] = biological target: T1, βγ; assay: Competition against phage-borne […], βγ heterodimer; assay type: binding; details: free peptide
immobilized IL-2Rβ = biological target: T3, immobilized IL-2Rβ (Homo sapiens, UniProt P14784); assay: pVIII 12-mer phage screen against immobilized IL-2Rβ; assay type: binding; details: pVIII-bound 12-mers
T3 construct: was produced in recombinant host cells in a truncated form; made in house; host or cells: recombinant host cells (baculovirus system or PIG-tailed CHO cells named as options)
T3 sequence (P14784 27-240 limits assumed): T1 sequence (P14784 27-240 limits assumed)
From the text: (§2) In the systems employed, the random peptides were presented either on the surface of a phage particle, as part of a fusion protein comprising either the pIII or the pVIII coat protein of a phage fd derivative (peptides on phage), or as a fusion protein with LacI bound to a plasmid (peptides on plasmids). The phage or plasmids, including the DNA encoding the peptides, were identified and isolated by an affinity enrichment process using immobilized IL-2Rα, IL-2Rβ, IL-2Rγ and the αβ heterodimer. The affinity enrichment process, sometimes called "panning", involves multiple rounds of incubating the phage or plasmids with immobilized receptor, collecting the phage or plasmids that bind to the receptor (along with the accompanying DNA), and producing more of the phage or plasmids (along with accompanying LacI-peptide fusion protein) collected.
as §1

αβ [3] = biological target: T4, αβ (Homo sapiens, UniProt P01589+P14784); assay: Competition against phage-borne […], αβ heterodimer; assay type: binding; details: free peptide
T4 construct: was produced in recombinant host cells in a truncated form; made in house; host or cells: recombinant host cells (baculovirus system or PIG-tailed CHO cells named as options)
T4 sequence (P01589 22-240 limits assumed): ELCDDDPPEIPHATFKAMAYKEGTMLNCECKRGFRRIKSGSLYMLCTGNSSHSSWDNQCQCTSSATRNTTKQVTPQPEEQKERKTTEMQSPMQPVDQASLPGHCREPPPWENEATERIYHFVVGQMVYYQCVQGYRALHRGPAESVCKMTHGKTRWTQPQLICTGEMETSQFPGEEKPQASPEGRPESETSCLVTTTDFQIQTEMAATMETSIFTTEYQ
T4 sequence (P14784 27-240 limits assumed): T1 sequence (P14784 27-240 limits assumed)

αβ [4] = biological target: T4, αβ; assay: Binding to αβ subunits
Experimental: as §1

IL-2Rαβ heterodimer = biological target: T5, IL-2Rαβ heterodimer (Homo sapiens, UniProt P01589+P14784); assay: pVIII 10-mer phage screen / ELISA against IL-2Rαβ heterodimer; assay type: binding; details: pVIII-bound 10-mers on phage
T5 construct: was produced in recombinant host cells in a truncated form; made in house; host or cells: recombinant host cells (baculovirus system or PIG-tailed CHO cells named as options)
T5 sequence (P01589 22-240 limits assumed): T4 sequence (P01589 22-240 limits assumed)
T5 sequence (P14784 27-240 limits assumed): T1 sequence (P14784 27-240 limits assumed)
From the text: as §2, §1
The immobilized receptor used in the affinity enrichment and ELISA procedures was produced in recombinant host cells in a truncated form. This truncated receptor molecule can be produced in a variety of different forms and host cells. One useful form of receptor is constructed by expressing the protein as a soluble protein in baculovirus transformed host cells using standard methods; another useful form is constructed with a signal peptide for protein secretion and for glycophospholipid membrane anchor attachment. This form of anchor attachment is called "PIG-tailing;"see Caras and Weddell, 3 Mar. 1989, Science 243:1196-1198, and Lin et al., 10 Aug. 1990, Science 249:677-679, each of which is incorporated herein by reference. Using the PIG-tailing system, one can cleave the receptor from the surface of the cells expressing receptor (e.g., transformed Chinese hamster ovary (CHO) cells selected for high level expression of receptor with a cell sorter) with phospholipase C. The cleaved receptor still comprises a carboxy terminal sequence of amino acids, called the "HPAP tail", from the signal for membrane attachment and can be immobilized without further purification.
The recombinant receptor protein was immobilized by coating the wells of microtiter plates with an anti-HPAP tail antibody, blocking with bovine serum albumin (BSA) in PBS, and then binding recombinant, truncated receptor to the antibody. Using this procedure, one should perform the immobilization reaction in varying concentrations of the receptor to determine the optimum amount for a given preparation, because different preparations of recombinant protein often contain different amounts of the desired protein. […] Otherwise, unblocked antibody can bind undesired phage during the affinity enrichment procedure. […]

βγ-subunit [5] = biological target: T6, βγ-subunit (Homo sapiens, UniProt P14784+P31785); assay: Phage-ELISA competition with phage bearing peptides, βγ-subunit; assay type: binding; details: phage-ELISA assay
T6 construct: was produced in recombinant host cells in a truncated form; made in house; host or cells: recombinant host cells (not fixed)
T6 sequence (P14784 27-240 limits assumed): T1 sequence (P14784 27-240 limits assumed)
T6 sequence (P31785 23-262 limits assumed): T1 sequence (P31785 23-262 limits assumed)
From the text: (§3) After several rounds of affinity enrichment, the phage or plasmids and accompanying peptides were examined by ELISA to determine if the peptides bind specifically to the receptor. […] By comparing test wells with control wells containing an unrelated receptor, one can determine whether a peptide binds to IL-2Rα (or IL-2Rβ, γ, αβ, or βγ) specifically.
Random pVIII 10-mer and 11-mer libraries were also screened against immobilized IL-2Rγ monomer in a phage ELISA assay at high receptor density.

[6] = biological target: T7, immobilized IL-2Rγ monomer (Homo sapiens, UniProt P31785); assay: Phage ELISA against immobilized IL-2Rγ monomer; assay type: binding; details: high receptor density
T7 construct: was produced in recombinant host cells in a truncated form; made in house; host or cells: recombinant host cells (not fixed)
T7 sequence (P31785 23-262 limits assumed): T1 sequence (P31785 23-262 limits assumed)
Experimental: as §1
(§4) Random pVIII 10-mer and 11-mer libraries were also screened against immobilized IL-2Rγ monomer in a phage ELISA assay at high receptor density. […] These peptides also bound to the βγ-subunit and competed with radiolabelled ligand.

βγ-subunit [7] = biological target: T6, βγ-subunit; assay: Binding to βγ-subunit and competition with radiolabelled ligand
From the text: as §4

immobilized IL-2Rα = biological target: T8, immobilized IL-2Rα (Homo sapiens, UniProt P01589); assay: Blocking of IL-2 binding to immobilized IL-2Rα
T8 construct: was produced in recombinant host cells in a truncated form; made in house; host or cells: recombinant host cells (baculovirus system or PIG-tailed CHO cells named as options)
T8 sequence (P01589 22-240 limits assumed): T4 sequence (P01589 22-240 limits assumed)

IL-2Rα = biological target: T9, IL-2Rα (Homo sapiens, UniProt P01589); assay: Phage screen of αβ heterodimer in presence of β-specific peptides: specific binding to IL-2Rα
T9 construct: was produced in recombinant host cells in a truncated form; made in house; host or cells: recombinant host cells (baculovirus system or PIG-tailed CHO cells named as options)
T9 sequence (P01589 22-240 limits assumed): T4 sequence (P01589 22-240 limits assumed)
Experimental: as §1
The αβ heterodimer was screened in the presence of each of the following peptides, […] (SEQ ID NO:65), […] (SEQ ID NO:66), […] (SEQ ID NO:67), […] (SEQ ID NO:68) and […] (SEQ ID NO:69) under standard conditions. […]

α subunit = biological target: T10, α subunit (Homo sapiens, UniProt P01589); assay: Phage ELISA competition against phage-bearing […]; assay type: binding; details: phage ELISA format against phage-bearing FVRCTASGCV
T10 construct: was produced in recombinant host cells in a truncated form; made in house; host or cells: recombinant host cells (baculovirus system or PIG-tailed CHO cells named as options)
T10 sequence (P01589 22-240 limits assumed): T4 sequence (P01589 22-240 limits assumed)
From the text: as §3

IL-2Rβ = biological target: T11, IL-2Rβ (Homo sapiens, UniProt P14784); assay: Colony lift procedure with tagged IL-2 receptors; assay type: binding
T11 construct: tag (kind not specified; detected enzymatically or on X-ray film)
T11 sequence (P14784 27-240 limits assumed): T1 sequence (P14784 27-240 limits assumed)
From the text: Peptides specific for the IL-2Rα, β and γ subunits were also discovered using a "colony lift" procedure, wherein cells were infected with DNA encoding for random amino acid sequences as described above. The phage was then allowed to grow on arabinose media to induce expression of the encoded peptides. […] The filters were washed and dried, and the tagged colonies were detected enzymatically, or by exposure to X-ray film, to identify those receptors which bound to the immobilized peptide-expressing phage particles.
Sequences which bound to IL-2Rβ have the general sequence RDCSX81AX82 LGELC, wherein X81 is V, E or D; and X82 is V or A. Preferred sequences are […], […] (SEQ ID NO: ), and […] (SEQ ID NO: ).

CSCC[C@H](N)C(=O)N[C@@H](CC(=O)O)C(=O)N[C@@H](CS)C(=O)N[C@@H](CO)C(=O)N[C@@H](CCC(=O)O)C(=O)N[C@@H](C)C(=O)N[C@H](C(=O)N[C@@H](CC(C)C)C(=O)NCC(=O)N[C@@H](CCC(=O)O)C(=O)N[C@@H](CC(C)C)C(=O)N[C@@H](CS)C(=O)O)C(C)C (H-MDCSEAVLGELC-OH; N-terminus and C-terminus assumed)
binding to βγ subunits (βγ [1]): able to bind | blocking IL-2 binding to the β-subunit (β-subunit): capable of blocking IL-2 binding | competition against phage-born MDCSEAVLGELC for binding (βγ [2]): competitive | subunit specificity of clones (immobilized IL-2Rβ): β-specific | competition against phage-born MDCSEAVLGELC for binding (αβ [3]): competitive | binding to αβ subunits (αβ [4]): able to bind

ARSDYGLGAIWP
subunit specificity of clones (immobilized IL-2Rβ): β-specific

ARYGDVGSLV
binding to the αβ heterodimer (IL-2Rαβ heterodimer): bound | subunit specificity (IL-2Rαβ heterodimer): specific for the β subunit

CGTQEACFGLL
competition with phage bearing peptides in binding to the βγ-subunit (βγ-subunit [5]): compete | specific binding to IL-2Rγ [6]: bind to that subunit specifically | binding to the βγ-subunit (βγ-subunit [7]): bound | competition with radiolabelled ligand (βγ-subunit [7]; βγ-subunit): competed

EVICGTDGCW
concentration at which IL-2 binding to immobilized IL-2Rα was blocked (immobilized IL-2Rα): 330 µM | specific binding to IL-2Rα (IL-2Rα): bound specifically

FVRCTASGCV
competition for binding with respect to the α subunit (α subunit): compete for binding

HCLDMGCTFPVW
subunit specificity of clones (immobilized IL-2Rβ): β-specific

RACRVMPCLPDL
subunit specificity of clones (immobilized IL-2Rβ): β-specific

RDCSDAVLEGLC
binding to IL-2Rβ (IL-2Rβ): bound

RDCSEARLGELC
binding to IL-2Rβ (IL-2Rβ): bound

RDCSVAVLGELC
binding to IL-2Rβ (IL-2Rβ): bound

RWGDVGDMVV
binding to the αβ heterodimer (IL-2Rαβ heterodimer): bound | subunit specificity (IL-2Rαβ heterodimer): specific for the β subunit

RYGEVGDLLP
binding to the αβ heterodimer (IL-2Rαβ heterodimer): bound | subunit specificity (IL-2Rαβ heterodimer): specific for the β subunit

SGCGRELDWC
binding to the αβ heterodimer (IL-2Rαβ heterodimer): bound | subunit specificity (IL-2Rαβ heterodimer): specific for the β subunit

SVRCSASGCV
concentration at which IL-2 binding to immobilized IL-2Rα was blocked (immobilized IL-2Rα): 110 µM | specific binding to IL-2Rα (IL-2Rα): bound specifically

WDGPGLGEFF
binding to the αβ heterodimer (IL-2Rαβ heterodimer): bound | subunit specificity (IL-2Rαβ heterodimer): specific for the β subunit
